Source: the supplement of paper PMC7125110
± gives the standard error. For some of these results: Fewer inactive variants are shown than the library holds.

B1: glmS ribozyme (parent)
chain: AUAAAAGCGCCAGAACUACAGAAAUGUAGUUGACGAGGAGGAGGUUUAUCGAAUUUUCGGCGGAUGCCUCCAAA

What was measured:
Conditions in all cases: with glucosamine-6-phosphate
glucosamine-6-phosphate [1] = variants of: B1; assay: kcat; higher = faster cleavage; RNA array
Summary of the method: (§1)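 Over ~14 h at 37 °C, tiles were imaged as glucosamine-6-phosphate (40 μM to 10 mM) in HEPES/KCl/Mg(OAc)2 buffer flowed across sequenced MiSeq chips. The chips carried barcoded ribozyme variants transcribed in situ by E. coli RNA polymerase and tracked with a hybridised Cy3 probe. After normalisation to baseline and to non-cleaving reference variants, one- or two-exponential decay fits of per-tile medians gave kobs. kcat and KM followed from weighted Michaelis–Menten fits across concentrations.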

glucosamine-6-phosphate [2] = variants of: B1; assay: self-cleavage kobs at 40 uM GlcN6P; higher = faster cleavage; RNA array
Summary of the method: as §1

glucosamine-6-phosphate [3] = variants of: B1; assay: self-cleavage kobs at 640 uM GlcN6P; higher = faster cleavage; RNA array
Summary of the method: as §1

glucosamine-6-phosphate [4] = variants of: B1; assay: KM; higher = weaker cofactor use; RNA array
Summary of the method: as §1

glucosamine-6-phosphate [5] = variants of: B1; assay: self-cleavage kobs at 160 uM GlcN6P; higher = faster cleavage; RNA array
Summary of the method: as §1

glucosamine-6-phosphate [6] = variants of: B1; assay: self-cleavage kobs at 2500 uM GlcN6P; higher = faster cleavage; RNA array
Summary of the method: as §1

glucosamine-6-phosphate [7] = variants of: B1; assay: self-cleavage kobs at 10000 uM GlcN6P; higher = faster cleavage; RNA array
Summary of the method: as §1

| Variant | kcat (glucosamine-6-phosphate [1]) [s⁻¹] | self-cleavage kobs at 40 uM GlcN6P (glucosamine-6-phosphate [2]) [s⁻¹] | self-cleavage kobs at 640 uM GlcN6P (glucosamine-6-phosphate [3]) [s⁻¹] | KM (glucosamine-6-phosphate [4]) [µM] | self-cleavage kobs at 160 uM GlcN6P (glucosamine-6-phosphate [5]) [s⁻¹] | self-cleavage kobs at 2500 uM GlcN6P (glucosamine-6-phosphate [6]) [s⁻¹] | self-cleavage kobs at 10000 uM GlcN6P (glucosamine-6-phosphate [7]) [s⁻¹] |
| --- | --- | --- | --- | --- | --- | --- | --- |
| AUAAAAGCGCCAGAACUACAGAAAUGUAGAUGACGGGGAGGAGGUUUAUCGAAUUUUCGGCGGAUGCCUCCAAA [U30A A36G] | < 1e-05 | < 1e-05 | < 1e-05 |  |  |  |  |
| AUAAAAGCGCCAGAACUACAGAAAUGUAGAUGACGAGGAGGAGGUUUAUCGAAUAUUCGGCGGAUGCCUCCAAA [U30A U55A] | 0.0085 ± 0.0022 | 0.000212 ± 3.2e-05 |  | 1850 ± 740 | 0.000501 ± 0.00012 | 0.00803 ± 0.0017 | 0.00686 ± 0.00088 |
| AUAAAAGCGCCAGAACUACAGAAAUGUAGAUGACGAGGAGGAGGUUUAACGAAUUUUCGGCGGAUGCAUCGAAA [U30A U49A C68A C71G] | 4.8e-05 ± 2.1e-05 |  | 7.12e-05 ± 2.8e-05 |  |  |  |  |
| AUAAAAGCGCCAGAACUACAGAAAUGUAUUUGACGAGGAGGAGGUUUAUCGAAUUUUCGACGGAUGCCUCCAAA [G29U G60A] | < 1e-05 | < 1e-05 | < 1e-05 |  | < 1e-05 |  | < 1e-05 |
| AUAAAAGCGCCAGAACUACAGAAAUGUAUUUGACGAGGAGGAGGUUCAUCGAAUUUUCGGCGGAUGCCUCCAAA [G29U U47C] | 0.000228 ± 1.3e-05 |  | 8.08e-05 ± 1.4e-05 | 1050 ± 180 | 4.21e-05 ± 1.6e-05 | 0.00017 ± 2.9e-05 | 0.000206 ± 1.8e-05 |
| AUAAAAGCGCCAGAACUACAGAAAUGUAGCUGACGAGGAGGAGGUUUAUCGAGUUUUCGGCGGAUGCCUCCAAA [U30C A53G] | 0.000411 ± 4.1e-05 |  | 9.02e-05 ± 1.4e-05 | 2120 ± 440 |  | 0.000252 ± 3.6e-05 | 0.000328 ± 3.8e-05 |
| AUAAAAGCGCCAGAACUACAGAAAUGUAGAUUACGAGGAGGAGGUUUAUCGAAUUUUCGGCGGAUGCCUCCAAA [U30A G32U] | 0.000735 ± 0.00018 |  | 7.63e-05 ± 1.5e-05 | 4830 ± 1700 | 3.89e-05 ± 1.7e-05 | 0.000275 ± 4.2e-05 | 0.000475 ± 9.5e-05 |
| AUAAAAGCGCCAGAACUACAGAAAUGUAGAUGACGAGGAGGAGGUUUAGCGAAUUUUCGGCGGAUGCCUUCAAA [U30A U49G C70U] | 0.000102 ± 2.6e-05 |  |  |  |  |  | 8.4e-05 ± 2e-05 |
| AUAAAAGCGCCAGAACUACAGAAAUGUAUUUGACGAGCAGGAGGUUUAUCGAAUUUUGGGCGGAUGCAUCAAAA [G29U G38C C58G C68A C71A] | 5.03e-05 ± 2.1e-05 |  |  |  |  | 8.03e-05 ± 4e-05 |  |
| AUAAAAGCGCCAGAACUACAGAAAUGUAGCUGACGAGGUGGAGGUUUAUCGAAUUUUCGGCGGAUGCCUCCAAA [U30C A39U] | 0.000228 ± 2.1e-05 |  | 6.71e-05 ± 1e-05 | 1730 ± 380 |  | 0.000123 ± 1.7e-05 | 0.000203 ± 2.2e-05 |
| AUAAAAGCGCCAGAACUACAGAAAUGUAUUUGACGAGGAGGAGGUUUAUCGAAUUUUCCGCGGAUGCCUCCAAA [G29U G59C] | < 1e-05 | < 1e-05 |  |  |  | < 1e-05 | < 1e-05 |
| AUAAAAGCGCCAGAACUACAGAAAUGUAUUUGACGAGGAGGAGGUUUAUCGAAUUUUCGGCGGAUGCCGCCAAA [G29U U69G] | 5.24e-05 ± 1.4e-05 |  | 7.49e-05 ± 1.7e-05 |  | 5.79e-05 ± 1.4e-05 | 5.06e-05 ± 1.2e-05 |  |
| AUAAAAGCGCCAGAACUACAGAAAUGUAGAUGACGAGGAGGAGGUUUAUCGAACUUUCGGCGGAUGCCUCCAAA [U30A U54C] | 0.00409 ± 0.0013 | 0.000151 ± 2.1e-05 | 0.00174 ± 0.00027 | 1040 ± 490 |  | 0.00215 ± 0.00045 | 0.00543 ± 0.001 |
| AUAAAAGCGCCAGAACUACAGAAAUGUAUUUGACGAGGAGAAGGUUUAUCGAAUUUUCGGCGGAUGCCUCCAAA [G29U G41A] | 0.000207 ± 3.7e-05 | < 1e-05 | 5.62e-05 ± 1.8e-05 | 1480 ± 620 |  | 0.000155 ± 3.1e-05 | 0.000164 ± 4e-05 |
| AUAAAAGCGCCAGAACUACAGAAAUGUAUUUGACGAGGAGGAGGUUUAUCGAAUCUUCGGCGGAUGCCUCCAAA [G29U U55C] | 0.00826 ± 0.0027 | 0.000123 ± 1.8e-05 | 0.00112 ± 0.0002 | 3740 ± 1700 | 0.000198 ± 7.2e-05 | 0.00427 ± 0.0009 | 0.00588 ± 0.00079 |
| AUAAAAGCGCCAGAACUACAGAAAUGUAGACGACGAGGAGGAGGUUUAUCGAAUUUUCGGCGGAUGCCUCCAAA [U30A U31C] | 0.00588 ± 0.00051 | 5.91e-05 ± 1.1e-05 | 0.000754 ± 0.00011 | 4300 ± 500 | 0.000203 ± 4.9e-05 | 0.00197 ± 0.00041 | 0.00423 ± 0.0006 |
